# Source: patent publication US20050255564A1, “Sulfated fucan” (TAKARA BIO INC, priority 2002, published 2005)
# Experiment: endo-type α-(1-4)L-fucosidase activity (HPLC of PA-labeled substrate)
# Assay type: biochemical, Fucus vesiculosus
# Conditions: endo-type α-(1-4)L-fucosidase activity after each purification step, Table 14
# Experimental: The sulfated fucan oligosaccharide 1-(4) as described in Example 2 was used to establish a system for measuring an endo-type α-(1-4)L-fucosidase activity. First, the sulfated fucan oligosaccharide 1-(4) was fluorescently labeled at the reducing end with 2-aminopyridine according to the method as described in Example 2-(4). The endo-type α-(1-4)L-fucosidase activity was measured as follows.
# Briefly, 75 μl of 100 mM sodium phosphate buffer (pH 7.0), 7.5 μl of a bovine serum albumin solution (2 mg/ml), 3.75 μl of 4 M sodium chloride, 50.25 μl of water, 6 μl of the sulfated fucan oligosaccharide 1-(4) fluorescently labeled at the reducing end with 2-aminopyridine (10 pmol/μl) and 7.5 μl of an endo-type α-(1-4)L-fucosidase solution were mixed together. After reacting at 30° C. for 3 hours, the reaction mixture was treated at 100° C. for 10 minutes and analyzed using HPLC. As controls, a reaction mixture obtained by a reaction in which the solvent for the endo-type α-(1-4)L-fucosidase was used in place of the enzyme solution and a reaction mixture obtained by a reaction in which water was used in place of the substrate were similarly analyzed. […]
substance,measurement,value
Hydroxyapatite,Specific activity,10.6 mU/mg
same,Total activity,219 mU
